Where two headings read alike, the source gives them in different places.
B1: untagged recombinant Nap1 (natural protein, yeast, UniProt P25293 1-417, looked up)
chain: MSDPIRTKPKSSMQIDNAPTPHNTPASVLNPSYLKNGNPVRAQAQEQDDKIGTINEEDILANQPLLLQSIQDRLGSLVGQDSGYVGGLPKNVKEKLLSLKTLQSELFEVEKEFQVEMFELENKFLQKYKPIWEQRSRIISGQEQPKPEQIAKGQEIVESLNETELLVDEEEKAQNDSEEEQVKGIPSFWLTALENLPIVCDTITDRDAEVLEYLQDIGLEYLTDGRPGFKLLFRFDSSANPFFTNDILCKTYFYQKELGYSGDFIYDHAEGCEISWKDNAHNVTVDLEMRKQRNKTTKQVRTIEKITPIESFFNFFDPPKIQNEDQDEELEEDLEERLALDYSIGEQLKDKLIPRAVDWFTGAALEFEFEEDEEEADEDEDEEEDDDHGLEDDDGESAEEQDDFAGRPEQAPECKQS
B2: GST-Htz1_(1–53) (domain or fragment, yeast, UniProt Q12692 1-53, looked up)
chain: MSGKAHGGKGKSGAKDSGSLRSQSSSARAGLQFPVGRIKRYLKRHATGRTRVG
B3: H6-Srp1 (natural protein, yeast, UniProt Q02821 1-542, looked up)
chain: MDNGTDSSTSKFVPEYRRTNFKNKGRFSADELRRRRDTQQVELRKAKRDEALAKRRNFIPPTDGADSDEEDESSVSADQQFYSQLQQELPQMTQQLNSDDMQEQLSATVKFRQILSREHRPPIDVVIQAGVVPRLVEFMRENQPEMLQLEAAWALTNIASGTSAQTKVVVDADAVPLFIQLLYTGSVEVKEQAIWALGNVAGDSTDYRDYVLQCNAMEPILGLFNSNKPSLIRTATWTLSNLCRGKKPQPDWSVVSQALPTLAKLIYSMDTETLVDACWAISYLSDGPQEAIQAVIDVRIPKRLVELLSHESTLVQTPALRAVGNIVTGNDLQTQVVINAGVLPALRLLLSSPKENIKKEACWTISNITAGNTEQIQAVIDANLIPPLVKLLEVAEYKTKKEACWAISNASSGGLQRPDIIRYLVSQGCIKPLCDLLEIADNRIIEVTLDALENILKMGEADKEARGLNINENADFIEKAGGMEKIFNCQQNENDKIYEKAYKIIETYFGEEEDAVDETMAPQNAGNTFGFGSNVNQQFNFN

Legend:
Test in all cases: pull-down
MBP-Kap114 [1] = molecular target: T1, MBP-Kap114 (yeast, UniProt P53067 1-1004)
T1 sequence (looked up): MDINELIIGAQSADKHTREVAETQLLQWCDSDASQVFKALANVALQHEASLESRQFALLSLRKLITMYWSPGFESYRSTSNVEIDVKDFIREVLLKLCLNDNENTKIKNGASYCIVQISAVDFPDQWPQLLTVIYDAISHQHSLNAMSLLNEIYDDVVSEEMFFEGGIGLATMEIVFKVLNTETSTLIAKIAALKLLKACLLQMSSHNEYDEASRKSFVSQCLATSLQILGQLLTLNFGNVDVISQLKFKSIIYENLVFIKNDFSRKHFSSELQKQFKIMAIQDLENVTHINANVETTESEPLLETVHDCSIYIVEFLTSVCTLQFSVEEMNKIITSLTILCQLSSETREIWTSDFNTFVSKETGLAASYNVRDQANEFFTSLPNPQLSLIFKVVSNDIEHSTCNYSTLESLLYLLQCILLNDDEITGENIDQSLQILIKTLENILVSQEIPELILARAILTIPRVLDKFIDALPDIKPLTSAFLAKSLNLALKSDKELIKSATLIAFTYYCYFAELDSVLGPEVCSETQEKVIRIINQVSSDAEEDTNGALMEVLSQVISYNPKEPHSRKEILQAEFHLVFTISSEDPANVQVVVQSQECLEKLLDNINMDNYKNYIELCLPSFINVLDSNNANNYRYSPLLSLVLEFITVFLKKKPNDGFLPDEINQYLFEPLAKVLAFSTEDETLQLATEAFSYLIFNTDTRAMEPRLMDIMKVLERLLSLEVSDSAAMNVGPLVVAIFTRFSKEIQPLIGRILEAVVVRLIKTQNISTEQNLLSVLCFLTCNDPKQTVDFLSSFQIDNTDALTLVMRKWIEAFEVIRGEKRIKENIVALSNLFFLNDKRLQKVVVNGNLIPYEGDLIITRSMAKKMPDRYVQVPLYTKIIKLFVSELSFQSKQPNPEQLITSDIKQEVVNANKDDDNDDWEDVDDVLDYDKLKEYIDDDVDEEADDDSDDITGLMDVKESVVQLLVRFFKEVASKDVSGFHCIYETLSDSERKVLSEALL

MBP-Kap123 = molecular target: T2, MBP-Kap123 (yeast, UniProt P40069 1-1113)
T2 sequence (looked up): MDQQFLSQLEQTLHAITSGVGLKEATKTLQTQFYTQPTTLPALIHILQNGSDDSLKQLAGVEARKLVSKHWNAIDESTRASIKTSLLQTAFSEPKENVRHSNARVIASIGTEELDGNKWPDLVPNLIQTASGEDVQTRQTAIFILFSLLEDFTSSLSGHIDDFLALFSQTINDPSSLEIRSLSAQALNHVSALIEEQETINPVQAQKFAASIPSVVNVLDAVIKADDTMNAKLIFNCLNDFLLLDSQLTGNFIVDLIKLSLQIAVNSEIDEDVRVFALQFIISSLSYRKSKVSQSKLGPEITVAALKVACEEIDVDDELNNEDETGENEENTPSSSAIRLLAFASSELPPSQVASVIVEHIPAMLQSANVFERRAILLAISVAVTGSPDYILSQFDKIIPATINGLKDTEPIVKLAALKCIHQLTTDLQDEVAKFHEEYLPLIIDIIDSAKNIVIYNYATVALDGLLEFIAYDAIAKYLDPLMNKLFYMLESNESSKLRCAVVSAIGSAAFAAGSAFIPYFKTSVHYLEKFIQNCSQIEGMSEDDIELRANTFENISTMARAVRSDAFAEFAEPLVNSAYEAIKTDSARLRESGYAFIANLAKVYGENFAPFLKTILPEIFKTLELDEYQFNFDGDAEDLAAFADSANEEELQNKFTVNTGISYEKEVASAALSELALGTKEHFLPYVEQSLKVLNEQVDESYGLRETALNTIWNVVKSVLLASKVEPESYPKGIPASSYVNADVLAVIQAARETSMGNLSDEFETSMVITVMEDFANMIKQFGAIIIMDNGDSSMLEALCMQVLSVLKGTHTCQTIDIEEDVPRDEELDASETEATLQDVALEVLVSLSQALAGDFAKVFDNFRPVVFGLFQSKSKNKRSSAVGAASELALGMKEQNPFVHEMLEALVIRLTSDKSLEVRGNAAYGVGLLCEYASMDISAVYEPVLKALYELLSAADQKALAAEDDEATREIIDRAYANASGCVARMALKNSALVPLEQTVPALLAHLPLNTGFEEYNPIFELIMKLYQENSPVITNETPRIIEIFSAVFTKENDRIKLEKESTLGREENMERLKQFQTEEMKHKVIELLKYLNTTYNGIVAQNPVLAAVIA

[2] = molecular target: B1
MBP-Kap114 [3] = molecular target: T1, MBP-Kap114; remark: listed apart in the source
[4] = molecular target: T3, untagged recombinant Kap95 (yeast, UniProt Q06142 1-861)
T3 sequence (looked up): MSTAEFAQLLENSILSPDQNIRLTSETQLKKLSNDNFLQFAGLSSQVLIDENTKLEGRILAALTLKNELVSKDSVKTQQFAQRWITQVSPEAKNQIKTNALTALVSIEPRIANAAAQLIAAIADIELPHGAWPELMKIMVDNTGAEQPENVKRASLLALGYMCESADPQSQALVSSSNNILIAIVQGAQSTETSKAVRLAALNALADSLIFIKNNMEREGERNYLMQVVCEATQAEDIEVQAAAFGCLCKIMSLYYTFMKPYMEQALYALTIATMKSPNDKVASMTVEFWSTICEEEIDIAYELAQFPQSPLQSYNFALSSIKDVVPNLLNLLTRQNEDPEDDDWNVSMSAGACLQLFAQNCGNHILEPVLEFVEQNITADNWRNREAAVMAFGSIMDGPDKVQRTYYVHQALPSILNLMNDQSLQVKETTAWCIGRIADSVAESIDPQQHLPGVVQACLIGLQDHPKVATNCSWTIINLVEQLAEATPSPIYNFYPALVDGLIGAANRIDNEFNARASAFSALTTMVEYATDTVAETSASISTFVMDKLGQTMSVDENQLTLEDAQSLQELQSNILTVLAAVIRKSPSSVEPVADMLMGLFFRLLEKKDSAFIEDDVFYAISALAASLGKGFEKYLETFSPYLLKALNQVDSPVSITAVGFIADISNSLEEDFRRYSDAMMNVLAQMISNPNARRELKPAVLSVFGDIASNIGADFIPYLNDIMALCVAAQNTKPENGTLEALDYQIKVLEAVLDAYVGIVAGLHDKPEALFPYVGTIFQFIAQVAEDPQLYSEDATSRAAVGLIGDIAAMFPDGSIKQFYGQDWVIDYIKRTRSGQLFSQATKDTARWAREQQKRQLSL

[5] = molecular target: T3, untagged recombinant Kap95; remark: listed apart in the source

B1: binds (MBP-Kap114 [1]).

B2: binds (MBP-Kap123); binds [2]; binds (MBP-Kap114 [3]). B2: binds [4].

B3: binds [5].

Source: publication PMC2907061 (Traffic (Copenhagen, Denmark), 2009)
